Reference: the nanobody polyreactivity screen of Harvey et al. (2022)

Test: yeast display, Sf9 membrane polyspecificity reagent, FACS + sequencing; frameworks hold sequencing errors
In short: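 Sorting gates, low and high (top ~1%), were placed on anti-HA fluorescence to track expression and on streptavidin fluorescence to track reagent binding. A clone's polyreactivity label is taken from the gate it came out of. The reagent was 10% biotinylated, detergent-solubilized Sf9 membrane, applied for 1 hour at 4 °C to galactose-induced yeast display cells.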

Which “polyreactivity (PSR sort gate)” value does the source give for “QVQLVESGGGLVQAGGSLRLSCAASGFTFFPYAMGWYRQAPGTERELVAAITETGGRTYYADSVKGRFTISRDNAKYTVYLQMNSLKPEDTAVYYCAKRGLHGYFVRGERGYWGQGTQVTVSS” here?
Its value is “low polyreactivity”.

For “QVQLVESGGGLVQAGGSLRLSCAASGFTFFRNAMGWYRQAPGKERELVAAISGSGGSTYYADSVKGRFTISRDNATNTVYLQMNSLIPVDTAVYYCATYSYPAKVREAYNYWGQGTQVTVSS”, which “polyreactivity (PSR sort gate)” value is on record?
The value was “low polyreactivity”.

Which “polyreactivity (PSR sort gate)” value does the source give for “QVQLVESGGGLVQAGGSLRLSCAASGFTFFSKAMGWYRQAPGKERELVAAITTNGGSTYYADSVKGRFTISRDNAKNTVYLQMNSLKPEETAVYYCAADYSLPWSWLYEYWGQGTQVTVSS” here?
Its value is “low polyreactivity”.

Which “polyreactivity (PSR sort gate)” value does the source give for “QVQLVESGGGLVQAGGSLRLSCAASGFTFFSNAMGWNRQAPGKERELVAAIDWSGDNTNYADSVKGRFTISRDNAKNTVYLQLNSLKPEDTAVYYCAAVYSYYRLYAYPAYYYWGQGTQVTVSS” here?
Its value is “low polyreactivity”.

With “QVQLVESGGGLVQAGGSLRLSCAASGFTFFSYAMGWYRQAPGKERELVAAISWSGGTTYYADSVKGRFTISRDNAKNTDYLQMNSLKPEDTAVYYCAAGPFSYSHYGRKFYYWGQGTQVTVSS” as the sequence, how does the “polyreactivity (PSR sort gate)” value read?
The value was “high polyreactivity”.

With “QVQLVESGGGLVQAGGSLRLSCAASGFTFFTYAMGWYRQAPGKERELVAAIRWRGSTTYYADSVKGRFTISRDNAKYTVYLQMNSLKPEDTAVYYCAAELRFRQTGLAYWGDYWGQGTQVTVSS” as the sequence, how does the “polyreactivity (PSR sort gate)” value read?
The value was “high polyreactivity”.

For “QVQLVESGGGLVQAGGSLRLSCAASGFTFFWYAMGWSRQAPGKERELVAGITYRGGSTYYADSVKGRFTISRDNAKNTVYLQMNSLKPEDTAVYYCNADVVTKHISAWWDRYYRRYYYWGQGTQVTVSS”, which “polyreactivity (PSR sort gate)” value is on record?
The value was “low polyreactivity”.

With “QVQLVESGGGLVQAGGSLRLSCAASGFTFFYNDMGSYRQAPGKERELVAAINLSGGTTYYADSVKGRFTISRDNAKNTVYLQMNSLIPEDTAVYYCNRASSTPWYRWRYKPFDYWGQGTQVTVSS” as the sequence, how does the “polyreactivity (PSR sort gate)” value read?
The value was “high polyreactivity”.

With “QVQLVESGGGLVQAGGSLRLSCAASGFTFFYYVMGWYRQAPGKERDLVAAITRGGSTYYADSVKGRFTISRDNAKNTVDLQMNSLKPEDTAVYYCNKVLRVYLGRFEYYSWGQGTQVTVSS” as the sequence, how does the “polyreactivity (PSR sort gate)” value read?
The value was “high polyreactivity”.

With “QVQLVESGGGLVQAGGSLRLSCAASGFTFGAYAMGWYRQAPGTERELVAAISYRGGRTYYADSVKGRFTISRDNAKNTVYLQMNSLKPEDTAVYYGNTVYLVTWRVKGYYWGQGTQVTVSS” as the sequence, how does the “polyreactivity (PSR sort gate)” value read?
Its value is “low polyreactivity”.

With “QVQLVESGGGLVQAGGSLRLSCAASGFTFGGNAMGWYRQAPGKEREFVAAITRSGGSTYYADSVKGRFTISRDNAKNTVYLQMNSLKPEDTAVYYCAARRSYPLGYDYWGQGTQVTVSS” as the sequence, how does the “polyreactivity (PSR sort gate)” value read?
The value was “high polyreactivity”.

With “QVQLVESGGGLVQAGGSLRLSCAASGFTFGGNVMGWYRQAPGTERELVAAITYSGGSTYYADSVKGRFTISRDNAKNTVYLQMNSLIPEDTAVYYCNADATDSYPEKDEHDSWGQGTQVNVSS” as the sequence, how does the “polyreactivity (PSR sort gate)” value read?
Its value is “low polyreactivity”.

Which “polyreactivity (PSR sort gate)” value does the source give for “QVQLVESGGGLVQAGGSLRLSCAASGFTFGGYAMGWYRQAPGKERELVAAISRSGGSTSYADSVKGRFTISRDNAKNTVYLQMNSLKPEDTAVYYCAAKFFRNTYSYGMDYWGLGTQVTVSS” here?
Its value is “high polyreactivity”.

With “QVQLVESGGGLVQAGGSLRLSCAASGFTFGGYAMGWYRQAPGKERELVAAISSGGSTYYADSVKGRFTISRDNAKNTVYLQMNSLKPEDTAVYYCATDLRRYSYRGGHYYWGQGTQVTVSS” as the sequence, how does the “polyreactivity (PSR sort gate)” value read?
Its value is “high polyreactivity”.

For “QVQLVESGGGLVQAGGSLRLSCAASGFTFGGYTMGWYRQAPGKERELVAAISRSGGSTYYADSVKGRFTISRDNAKNTVYLLMNSLKPEDTAVYYCAVTYSVRTYWYDYWGQGTQVTVSS”, which “polyreactivity (PSR sort gate)” value is on record?
Its value is “high polyreactivity”.

With “QVQLVESGGGLVQAGGSLRLSCAASGFTFGGYVMGWYRQAPGKERELVAAINQTGGSTYYADSVKGRFTISRDNAKNTVYLQMNSLKPEDTAVYYCAALGYHGYRNYDYWGQGTQVTVSS” as the sequence, how does the “polyreactivity (PSR sort gate)” value read?
Its value is “low polyreactivity”.

With “QVQLVESGGGLVQAGGSLRLSCAASGFTFGINAKGWYRQAPGKERELVAALSWSGGSTYYADSVKGRFTISRDNAKNTVYLQMNSLKPEDTAVYYCAVVWFSLWYKGSTFNRYDYWGQGTQVTVSS” as the sequence, how does the “polyreactivity (PSR sort gate)” value read?
Its value is “low polyreactivity”.

With “QVQLVESGGGLVQAGGSLRLSCAASGFTFGIYAMGRYRQAPGKERELVAAISRSGGSTYYADSVKGRFTISRDNAKNTVYLQMNSLKPEDTAVYYCNTRWGYARGGRYGYWGQGTQVTVSS” as the sequence, how does the “polyreactivity (PSR sort gate)” value read?
Its value is “high polyreactivity”.

Which “polyreactivity (PSR sort gate)” value does the source give for “QVQLVESGGGLVQAGGSLRLSCAASGFTFGIYAMGWYRQAPGKERELVAAISRGGGSTYYADSVKGRFTISRDNAKNTVYLQMNSLKPEDTAVYYCAARYQSPYDYWGQGTQVTVSS” here?
The value was “high polyreactivity”.

Which “polyreactivity (PSR sort gate)” value does the source give for “QVQLVESGGGLVQAGGSLRLSCAASGFTFGIYAMGWYRQAPGKERELVAAITKGGGSTYYADSVKGRFTISRDNAKNTVYLQMNSLKPEDTAVYYCAARRVSERRVGYWGQGTQVTVSS” here?
Its value is “high polyreactivity”.

For “QVQLVESGGGLVQAGGSLRLSCAASGFTFGKYAMGWYRPAPAKERELVAAISRSGGSTYYADSVKGRFTISRDIAKNTVYLQMNSLKPEDTAVYYCAAYHPIQEYDYWGQGTQVTVSS”, which “polyreactivity (PSR sort gate)” value is on record?
Its value is “high polyreactivity”.

With “QVQLVESGGGLVQAGGSLRLSCAASGFTFGKYARGWYRQAPGKERELVAAISRSGGSTYYADSVKGRFTISRDNAKNTVYLQMNSLKPEDTAVYYCAAYHPIQEYDYWGQGTQVTVSS” as the sequence, how does the “polyreactivity (PSR sort gate)” value read?
Its value is “high polyreactivity”.

With “QVQLVESGGGLVQAGGSLRLSCAASGFTFGLYAMGWYRQAPGKERELVAAISWSGDNTYYADSVKGRFTISRDNAKNTVYLQMNSLKPEDTAVYYCAKVTKRNQGYYYWGQGTQVTVSS” as the sequence, how does the “polyreactivity (PSR sort gate)” value read?
Its value is “high polyreactivity”.

Which “polyreactivity (PSR sort gate)” value does the source give for “QVQLVESGGGLVQAGGSLRLSCAASGFTFGNYAMGWYRQAPGKERELVAAITRGGSTYYADSVKGRFTISRDNAKNTVYLQMKSLKPEDTAVYYCAARYFFWFRPSEYYYWGQGTQVTVSS” here?
Its value is “high polyreactivity”.

Which “polyreactivity (PSR sort gate)” value does the source give for “QVQLVESGGGLVQAGGSLRLSCAASGFTFGPNAMGWYRQAPGKEREFVAAISWSGGSTYYADSVKGRFTISRDNAKNTVYLQMNSLKPEDTAVYYCAARYRYTRSGTMGYWGQGTQVTVSS” here?
The value was “high polyreactivity”.

With “QVQLVESGGGLVQAGGSLRLSCAASGFTFGRNAMGWYRQAPGKERELVAAISRGGSTYYADSVKGRFTISRDNAKNTVYLQMISLKPEDTAVYYCAAETFLKPQYFKKFGYWGQGTQVTVSS” as the sequence, how does the “polyreactivity (PSR sort gate)” value read?
The value was “high polyreactivity”.

For “QVQLVESGGGLVQAGGSLRLSCAASGFTFGRYAMGWYRQAPGKERELVAAITWSGGTTTYYADSVKGRFTISRDNAKNTVYLQMNSLKPEDTAVYYSAADLYFYIYSYNYWGQGTQVTVSS”, which “polyreactivity (PSR sort gate)” value is on record?
Its value is “low polyreactivity”.

Which “polyreactivity (PSR sort gate)” value does the source give for “QVQLVESGGGLVQAGGSLRLSCAASGFTFGRYAMGWYRQAPGKERELVASITSGGSTYYADSVKGRFTISRDNAKNTVYLQMNSLKPEDTAVYYCAAEWRWWGGYYYWGQGTQVTVSS” here?
The value was “high polyreactivity”.

For “QVQLVESGGGLVQAGGSLRLSCAASGFTFGRYTMGCYRQEPGKERELVAAISKSGSGTFYADSVKGRFTISRDNAKNTVYLQINSLKPEDTAVYYCAARYRHFGNQVRTSHSIMYYWGQGTQVTVSS”, which “polyreactivity (PSR sort gate)” value is on record?
Its value is “high polyreactivity”.

Which “polyreactivity (PSR sort gate)” value does the source give for “QVQLVESGGGLVQAGGSLRLSCAASGFTFGRYTMGWYRQAPGKERELVAAISWSGGSTYYADSVKGRFTISRDNAKNTVYLQMNSLKPEDTAVYYCAKVFRGGRGDYWGQGTQVTVSS” here?
The value was “high polyreactivity”.

With “QVQLVESGGGLVQAGGSLRLSCAASGFTFGSNAMGWYRQAPGKERELVAAISYSGTRTYYADSVKGRFTISRDNAKNTVYLQMNRLKPEDTAVYYCAAGFRKTQFNVRYYYWGHGTQVTVSS” as the sequence, how does the “polyreactivity (PSR sort gate)” value read?
The value was “high polyreactivity”.

Which “polyreactivity (PSR sort gate)” value does the source give for “QVQLVESGGGLVQAGGSLRLSCAASGFTFGSYAMGWYRQAPGKERELVAAIRQSATRTYYADSVKGRFTISRDNAKNTVYLQMNSLKPEDTAVYYCNVARPGKYFYIYDYWGQGTQVTVSS” here?
Its value is “low polyreactivity”.

Which “polyreactivity (PSR sort gate)” value does the source give for “QVQLVESGGGLVQAGGSLRLSCAASGFTFGSYAMGWYRQAPGKERELVAAITASGGSTYYADSVKGRFTISRDNPKNTVYLQMNSLKPEDTAVYYCNKRWTYKWDDYWGQGTQVTVSS” here?
Its value is “high polyreactivity”.

For “QVQLVESGGGLVQAGGSLRLSCAASGFTFGTYAMGWYRQAPGKERELVAAITSSGTITYYADSVKGRFTISRDNAKNTVYLQMNSLKPEDTAVYYCAARRFRRLRWGQGTQVTVSS”, which “polyreactivity (PSR sort gate)” value is on record?
The value was “low polyreactivity”.

With “QVQLVESGGGLVQAGGSLRLSCAASGFTFGVYAMGWYRQAPGKERELVAAITWGDGSTYYADSVKGRFTISRDNAKNTVYLQMYSLKPEDTAVYYCIAVTRRHIYYYWGQGTQVTVSS” as the sequence, how does the “polyreactivity (PSR sort gate)” value read?
Its value is “high polyreactivity”.

Which “polyreactivity (PSR sort gate)” value does the source give for “QVQLVESGGGLVQAGGSLRLSCAASGFTFGVYTMGWYRQAPGKETELVASISWDGGSTYYADSVKGRFTISRDNAKNTVYLQMNSLKPEDTAVYYCAKGSSFYYGYDYWGQGTQVTVSS” here?
The value was “low polyreactivity”.

Which “polyreactivity (PSR sort gate)” value does the source give for “QVQLVESGGGLVQAGGSLRLSCAASGFTFGWNAMGWYRQAPGKERELVAAISWSGGSTYYADSVKGRFTISRDNAKKTVYLQMNSLKPEDTAVYYCAAYPAYGGDYWGQGTQVTVSS” here?
Its value is “high polyreactivity”.

With “QVQLVESGGGLVQAGGSLRLSCAASGFTFGWNAMGWYRQAPGKERELVAAISWSGGSTYYADSVKGRFTISRDNAKNTVYLQMNSLKPEDTAVYYCAAYPAYGGDYWGQGTQVTVSS” as the sequence, how does the “polyreactivity (PSR sort gate)” value read?
The value was “high polyreactivity”.

With “QVQLVESGGGLVQAGGSLRLSCAASGFTFGWYAMGRYRQAPGKERELVAAISRGGSTYYADSVKGRFTISRDNAKNTVYLQMNSLKPEDTAVYYCNAAGLPTQLYYWGQGTQVTVSS” as the sequence, how does the “polyreactivity (PSR sort gate)” value read?
Its value is “high polyreactivity”.

For “QVQLVESGGGLVQAGGSLRLSCAASGFTFGYNDMGWYRQAPGKERELVAAIRLSDGGTYYADSVKGRFTISRDNAKNTVYLQMNSLKPEDTAVYYCAAPQDTYIPYDYWGQGTQVTVSS”, which “polyreactivity (PSR sort gate)” value is on record?
Its value is “low polyreactivity”.

Which “polyreactivity (PSR sort gate)” value does the source give for “QVQLVESGGGLVQAGGSLRLSCAASGFTFGYNTMGWYRQAPGKERELVATITSGGSTYYADSVKGRFTISRDNAKNTDYLQMNSLKPEDTAVYYCAATAGSPWAKSRYGYWGQGTQVTVSS” here?
Its value is “low polyreactivity”.

Which “polyreactivity (PSR sort gate)” value does the source give for “QVQLVESGGGLVQAGGSLRLSCAASGFTFGYYAKGWYRQAPGKERELVAGISRGGRTNYADSVKGRFTISRDNAKNTVYLQMNSLKPEDTAVYYCAKDTYYPSSRYNRYYYWGQGSQVTVSS” here?
Its value is “high polyreactivity”.

Which “polyreactivity (PSR sort gate)” value does the source give for “QVQLVESGGGLVQAGGSLRLSCAASGFTFGYYALGWYRQAPGKERELVAAINYSGGSTYYADSVKGRFTISRDNAKNTVYLQMNSLKPEDTAVYYCAAQSYYGRGYWGQGTQVTVSS” here?
The value was “high polyreactivity”.
